Experimental data: patent US8420776B2, “Ube2G2 binding domain in the ubiquitin ligase gp78 and methods of use thereof” (The United States of America, as Represented by the …, priority 2004, dated 2013)

How the values were obtained:
[1] = biological target: T1, lysine 48-linked (K48) tetra-ubiquitin (Homo sapiens, UniProt P0CG47); test: Tetra-ubiquitin binding to GST fusions; conditions: anti-ubiquitin immunoblot
T1 construct: 1 μg K48 tetra-ubiquitin produced as described (Piotrowski et al., 1997); made in house
Method: GST fusions were purified from E. Coli. Binding was carried out using equi-molar amount of fusion proteins measured by Commassie blue staining. Generally, 20 picomoles/sample were used. In vitro translated E2 was generated by coupled transcription and translation using 35S methionine in either wheat germ or rabbit reticulocyte lysate. Binding assays using in vitro translated E2 was carried out by incubating GST protein pre-bound to Glutathione-sepharose 4B with […] of ^35S-methionine labeled E2 in binding buffer (25 mM Tris-HCl, pH 7.4; 50 mM NaCl, 5 mM DTT; and 0.5% NP-40) overnight at 4° C. Beads were washed with binding buffer and resolved by SDS-PAGE under reducing conditions. Analysis was by Storm PhosphoImager (Applied Biosystems, Foster City, Calif.). Direct binding assays used wild type His6-MmUbc7 (His6-Ube2G2) and Glutathione-sepharose bound GST fusions. Beadbound GST protein was incubated with 100 ng purified His6-MmUbc7 in binding buffer and washed and eluted as above. After transfer to Hybond-P (Amersham Biosciences) binding was assessed with anti-His6 followed by Enhanced Chemiluminescence ECL; Pierce). Ubiquitin binding studies were performed with binding and washing as above using 1 μg K48 tetra-ubiquitin produced as described (Piotrowski et al., 1997). Detection was by anti-ubiquitin immunoblotting.

Myc-Ube2G2 = biological target: T2, Myc-Ube2G2 (Mus musculus, UniProt P60605); test: Co-immunoprecipitation with co-expressed Myc-Ube2G2 in cells; type: cell-based; conditions: anti-Myc IP, anti-gp78 IB; MG132 8 hr
T2 construct: expressed in transfected cells; host or cells: HEK 293T
T2 sequence (P60605 1-165): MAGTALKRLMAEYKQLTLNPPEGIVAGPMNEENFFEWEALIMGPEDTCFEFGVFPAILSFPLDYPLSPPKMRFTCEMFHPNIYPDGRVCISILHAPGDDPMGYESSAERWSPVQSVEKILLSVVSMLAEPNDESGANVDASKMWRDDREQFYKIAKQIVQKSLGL
Method: (§1) Transfections of HT1080, NIH 3T3 and HEK 293T cells were carried out ˜24 hr after plating using Polyfect (Qiagen, Valencia, Calif.) and cells harvested after ˜48 hr. J558 cells were transfected by electroporation using Bio-rad GENE pulser II at settings of 250 v, 950uF. Vector without insert was used to equalize total plasmid. In most experiments 0.15 μg of pEGFP-C1 served as an internal control. For experiments not involving immunoprecipitation, 6×10^5 cells were plated in 6 well plates and cell lysis was with Mammalian Protein Extraction Reagent (Pierce). For immunoprecipitation, 2.4×10^6 cells were seeded in 100 mm dishes and cells were lysed in RIPA buffer (1×PBS, 1% Nonidet P40. 0.5% sodium deoxycholate, 0.1% SDS). Lysis buffers were supplemented with Protease Inhibitor Cocktail (Sigma) and 10 mM iodoacetamide. Supernatants were analyzed after a 10,000×g centrifugation using standard techniques for immunoprecipitation, SDS-PAGE, immunoblotting and ECL. Treatment of cells with MG132 (Sigma) was at 50 μM for eight hr. Cycloheximnide was used at 50 μg/ml. All cells were collected at the end of the six hr chase.
FIG. 5 depicts the results of immunoprecipitation of Ube2G2 (MmUbc7) from HEK 293T cells co-transfected with a plasmid encoding myc-tagged MmUbc7/Ube2G2 together with s plasmid encoding various forms of gp78. HEK 293T cells were transfected with a plasmid encoding myc-tagged MmUbc7/Ube2G2 together with plasmids encoding various forms of gp78. After 48 hours, cells were harvested and co-immuntoprecipitated with an anti-Myc tage. Anti-gp78 was used for detection. “R2M” indicates a mutation of two crucial residues in the RING finger. “T” indicates C terminal truncations at the indicated amino acids. ΔB is the mutation indicated above in FIG. 4 in the context of the full length gp78 and “Cue12M” indicates mutations in the Cue domain of gp78.
To confirm the significance of the Ube2G2 binding site in cells, a variety of mutations and truncations of full-length gp78 were tested for binding of co-expressed Myc-Ube2G2 (FIG. 19A). Cells were treated with the proteasome inhibitor MG132 in an attempt to equalize levels of the various forms of gp78.

ERAD substrate CD3-δ = test: CD3-δ level in co-transfected cells by immunoblotting; type: cell-based; conditions: for reversal of G2BD-induced CD3-δ stabilization by co-transfected Ube2G2: cells expressing Flag-tagged gp78 574-643, 2 or 4 μg Ube2G2 plasmid; for effect on CD3-δ level (stabilization): co-transfection with CD3-δ, immunoblot
Method: as §1
FIG. 7 depicts the stabilization of CD3-δ protein in cells transfected with the G2BD, but not with the G2BD with amino acids 579-584 (of SEQ ID NO:2) mutated. HEK 293T cells were transfected with the ERAD substrate CD3-δ along with the indicated GFP fusions of gp78. The left and right sides are two separate experiments.
To test this, GFP fusions of either a minimal E2 binding domain (GFP-574-611) or a more extended region that includes the C-terminus of gp78 (GFP-574-643) were evaluated (FIG. 21A). […] To assess this further, the C-terminal region of gp78 was fused to the eight amino acid Flag tag. […] Mdm2 is a RING finger E3 for both itself and p53 that is neither an ERAD substrate nor known to utilize Ube2G2 as an E2. […] To establish with certainty that the effect observed with expression of the Ube2G2 binding site is a consequence of binding endogenous E2, and not due to other unanticipated effects, cells were co-transfected with increasing amounts of Ube2G2 (FIG. 21C, lanes 3 and 4). […] These findings clearly establish that the isolated E2 binding site has the potential to markedly alter ERAD of CD3-δ. To ensure the effect observed was not peculiar to one substrate, TCR-α was evaluated (FIG. 21D).

B1: 435-507: GST fusion of amino acids 435-507 of gp78, the Cue domain region (protein)
chain: SFSVEVMHTTNILGITQASNSQLNAMAHQIQEMFPQVPYHLVLQDLQLTRSVEITTDNILEGRIQVPFPTQRS
modifications: left off: a dimerising Fc or GST
notes: GST fusion of amino acids 435-507 of gp78, the Cue domain region
binding of K48 tetra-ubiquitin [1]: sufficient to bind tetra-ubiquitin

B2: gp78576: gp78 truncated after amino acid 576 of SEQ ID NO:2 (protein, listed as Homo sapiens)
chain: MPLLFLERFPWPSLRTYTGLSGLALLGTIISAYRALSQPEAGPGEPDQLTASLQPEPPAPARPSAGGPRARDVAQYLLSDSLFVWVLVNTACCVLMLVAKLIQCIVFGPLRVSERQHLKDKFWNFIFYKFIFIFGVLNVQTVEEVVMWCLWFAGLVFLHLMVQLCKDRFEYLSFSPTTPMSSHGRVLSLLVAMLLSCCGLAAVCSITGYTHGMHTLAFMAAESLLVTVRTAHVILRYVIHLWDLNHEGTWEGKGTYVYYTDFVMELTLLSLDLMHHIHMLLFGNIWLSMASLVIFMQLRYLFHEVQRRIRRHKNYLRVVGNMEARFAVATPEELAVNNDDCAICWDSMQAARKLPCGHLFHNSCLRSWLEQDTSCPTCRMSLNIADNNRVREEHQGENLDENLVPVAAAEGRPRLNQHNHFFHFDGSRIASWLPSFSVEVMHTTNILGITQASNSQLNAMAHQIQEMFPQVPYHLVLQDLQLTRSVEITTDNILEGRIQVPFPTQRSDSIRPALNSPVERPSSDQEEGETSAQTERVPLDLSPRLEETLDFGEVEVEPSEVEDFEARGSRFSKSAD
E2 association of full-length gp78 forms with co-expressed Myc-Ube2G2 (Myc-Ube2G2): loss of E2 binding

B3: Cue-m1: GST fusion of complete C-terminal region of gp78 with MFP to GGR mutation of residues 467 to 469 (protein)
chain: IRRHKNYLRVVGNMEARFAVATPEELAVNNDDCAICWDSMQAARKLPCGHLFHNSCLRSWLEQDTSCPTCRMSLNIADNNRVREEHQGENLDENLVPVAAAEGRPRLNQHNHFFHFDGSRIASWLPSFSVEVMHTTNILGITQASNSQLNAMAHQIQEGGRQVPYHLVLQDLQLTRSVEITTDNILEGRIQVPFPTQRSDSIRPALNSPVERPSSDQEEGETSAQTERVPLDLSPRLEETLDFGEVEVEPSEVEDFEARGSRFSKSADERQRMLVQRKDELLQQARKRFLNKSSEDDAASESFLPLEGASSDPVTLRRRMLAAAAERRLQKQQTS
modifications: left off: a dimerising Fc or GST
binding of K48 tetra-ubiquitin [1]: total loss of ubiquitin binding

B4: Cue-m2: GST-gp78 fusion with VLQDL to RLQVD mutation of residues 476 to 480 (protein)
chain: IRRHKNYLRVVGNMEARFAVATPEELAVNNDDCAICWDSMQAARKLPCGHLFHNSCLRSWLEQDTSCPTCRMSLNIADNNRVREEHQGENLDENLVPVAAAEGRPRLNQHNHFFHFDGSRIASWLPSFSVEVMHTTNILGITQASNSQLNAMAHQIQEMFPQVPYHLRLQVDQLTRSVEITTDNILEGRIQVPFPTQRSDSIRPALNSPVERPSSDQEEGETSAQTERVPLDLSPRLEETLDFGEVEVEPSEVEDFEARGSRFSKSADERQRMLVQRKDELLQQARKRFLNKSSEDDAASESFLPLEGASSDPVTLRRRMLAAAAERRLQKQQTS
modifications: left off: a dimerising Fc or GST
binding of K48 tetra-ubiquitin [1]: total loss of ubiquitin binding

B5: Ube2G2: ubiquitin conjugating enzyme Ube2G2 expressed from co-transfected plasmid (protein, listed as Homo sapiens)
chain: MAGTALKRLMAEYKQLTLNPPEGIVAGPMNEENFFEWEALIMGPEDTCFEFGVFPAILSFPLDYPLSPPKMRFTCEMFHPNIYPDGRVCISILHAPGDDPMGYESSAERWSPVQSVEKILLSVVSMLAEPNDESGANVDASKMWRDDREQFYKIAKQIVQKSLGL
reversal of G2BD-induced CD3-δ stabilization by co-transfected Ube2G2 (ERAD substrate CD3-δ): dose-dependent reversal of CD3-δ stabilization | reversal of G2BD-induced CD3-δ stabilization by co-transfected Ube2G2 (ERAD substrate CD3-δ; listed as Ube2G2/MmUbc7): reversed

B6: GFP-574-643: GFP fusion of a more extended region that includes the C-terminus of gp78, residues 574-643 (protein, listed as Homo sapiens)
chain: SADERQRMLVQRKDELLQQARKRFLNKSSEDDAASESFLPLEGASSDPVTLRRRMLAAAAERRLQKQQTS
effect on CD3-δ level (stabilization) (ERAD substrate CD3-δ): dramatically stabilized CD3-δ

B7: Flag-tagged gp78 residues 574-643: C-terminal region of gp78 fused to the eight amino acid Flag tag (protein)
chain: SADERQRMLVQRKDELLQQARKRFLNKSSEDDAASESFLPLEGASSDPVTLRRRMLAAAAERRLQKQQTS
modifications: left off: small tags and cut ends
notes: C-terminal region of gp78 fused to the eight amino acid Flag tag
effect on CD3-δ level (stabilization) (ERAD substrate CD3-δ): marked stabilization of CD3-δ
